This is an account of results in article PMC5955624.

Assay in all cases: two-hybrid
The target of assay [1] is chimeric protein SUMO-Tpz1(243-420) (fission yeast (Schizosaccharomyces pombe)) (UniProt O14246).
In assay [2] the target is SUMO (small ubiquitin-like modifier, encoded by pmt3) (fission yeast (Schizosaccharomyces pombe)) (UniProt O13351).
Assay [3] concerns the target Tpz1 (fission yeast (Schizosaccharomyces pombe)) (UniProt O14246).

Sequence of UniProt O14246 (O14246 whole entry): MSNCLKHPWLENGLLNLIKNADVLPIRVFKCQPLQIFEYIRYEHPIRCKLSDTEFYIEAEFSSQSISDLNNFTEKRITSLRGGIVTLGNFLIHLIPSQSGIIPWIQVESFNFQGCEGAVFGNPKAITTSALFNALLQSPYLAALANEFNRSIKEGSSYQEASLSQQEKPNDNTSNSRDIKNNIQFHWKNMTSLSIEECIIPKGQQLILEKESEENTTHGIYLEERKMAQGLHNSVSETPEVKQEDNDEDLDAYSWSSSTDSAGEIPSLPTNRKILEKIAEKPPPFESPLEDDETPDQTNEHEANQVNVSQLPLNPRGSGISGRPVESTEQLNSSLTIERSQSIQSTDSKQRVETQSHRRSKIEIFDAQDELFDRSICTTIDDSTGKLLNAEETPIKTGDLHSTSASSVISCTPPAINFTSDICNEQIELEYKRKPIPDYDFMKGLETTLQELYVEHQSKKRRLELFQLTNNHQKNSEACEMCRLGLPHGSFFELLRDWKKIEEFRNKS
Sequence of UniProt O13351 (O13351 whole entry): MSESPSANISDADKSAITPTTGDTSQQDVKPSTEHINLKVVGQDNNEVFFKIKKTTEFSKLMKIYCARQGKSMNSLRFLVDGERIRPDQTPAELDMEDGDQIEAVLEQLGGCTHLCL

“Ten1Stn1 fusion protein (Ten1, Gly15 linker, Stn1)”: the β-galactosidase activity (two-hybrid) (β-galactosidase U) amounted to 50 in assay [1], 50 in assay [2] and 7 in assay [3].
